Test results published in publication PMC6408234.

Columns and labels:
[1] = biological target: 9C-HLA-A2 (NY-ESO-1 157-165 peptide … on HLA-A*02:01 with human β2m); test: biomembrane force probe
[2] = biological target: C-C-locked R4-MHC (disulfide-bond-locked MHC mutant) (mouse | human); test: biomembrane force probe

peak bond lifetime (at ~10 pN force) [1] [s]	fold reduction of the optimal bond lifetime against R4-MHC [2] [fold]	Substance
1	–	1G4 TCR
–	2	2C TCR (wild type)
